According to patent US20170129962A1 (Hoffmann-La Roche, published 2017):
Positions count from the first letter of the chain named. Names may count otherwise.

T1: human Ang-2-RBD-Fc (human, UniProt O15123 275-496, limits assumed)
T1 construct: domain: RBD; Analyte in solution; not shown: Fc part
T1 sequence (looked up): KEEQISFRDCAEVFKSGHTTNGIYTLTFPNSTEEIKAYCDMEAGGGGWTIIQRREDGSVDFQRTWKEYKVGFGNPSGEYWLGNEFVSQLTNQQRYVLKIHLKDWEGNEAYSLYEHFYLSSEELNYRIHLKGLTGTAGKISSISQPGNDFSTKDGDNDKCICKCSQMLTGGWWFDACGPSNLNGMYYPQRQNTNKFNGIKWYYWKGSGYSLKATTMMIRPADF

T2: human VEGFA-121 (VEGF-A-121-His) (human, UniProt P15692-9 27-147)
T2 construct: Captured on the chip through an anti-His antibody; not shown: His tag
T2 sequence (looked up): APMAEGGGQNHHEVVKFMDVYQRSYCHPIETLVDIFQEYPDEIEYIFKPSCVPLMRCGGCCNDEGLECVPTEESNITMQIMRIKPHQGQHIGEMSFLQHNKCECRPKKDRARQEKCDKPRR

B1: Ang2VEGF-0454 (bispecific antibody, human IgG1, kappa)
light 1: QPGLTQPPSVSVAPGQTARITCGGNNIGSKSVHWYQQKPGQAPVLVVYDDSDRPSGIPERFSGSNSGNTATLTISRVEAGDEADYYCQVWDSSSDHYVFGTGTKVTVLRTVAAPSVFIFPPSDEQLKSGTASVVCLLNNFYPREAKVQWKVDNALQSGNSQESVTEQDSKDSTYSLSSTLTLSKADYEKHKVYACEVTHQGLSSPVTKSFNRGEC
heavy 1: not shown
light 2: DIQMTQSPSSLSASVGDRVTITCSASQDISNYLNWYQQKPGKAPKVLIYFTSSLHSGVPSRFSGSGSGTDFTLTISSLQPEDFATYYCQQYSTVPWTFGQGTKVEIKSSASTKGPSVFPLAPSSKSTSGGTAALGCLVKDYFPEPVTVSWNSGALTSGVHTFPAVLQSSGLYSLSSVVTVPSSSLGTQTYICNVNHKPSNTKVDKKVEPKSC
heavy 2: not shown
notes: also called Ang2VEGF-0454-0002; Ang2VEGF-0454-0002 (control)
B2: Ang2VEGF-0456 (bispecific antibody, human IgG1, kappa)
light 1: B1 light 1 with Q125K
heavy 1: not shown
light 2: B1 light 2
heavy 2: not shown
notes: CrossMAb CH1-CL, knob-into-hole with S354C/Y349C; also called Ang2VEGF-0456-0002
B3: Ang2VEGF-0474 (bispecific antibody, human IgG1, kappa)
light 1: B1 light 1 with Q125K
heavy 1: not shown
light 2: B1 light 2
heavy 2: not shown
notes: CrossMAb CH1-CL, knob-into-hole with S354C/Y349C
B4: Ang2VEGF-0465 (bispecific antibody, human IgG1, kappa)
light 1: B1 light 1 with Q37K, E124K, Q125K
heavy 1: not shown
light 2: B1 light 2 with Q38K
heavy 2: not shown
notes: CrossMAb CH1-CL, knob-into-hole with S354C/Y349C; also called Ang2VEGF-0465-0002
B5: Ang2VEGF-0460 (bispecific antibody, human IgG1, kappa)
light 1: B1 light 1
heavy 1: not shown
light 2: B1 light 2 with K205E
heavy 2: not shown
notes: CrossMAb CH1-CL, knob-into-hole with S354C/Y349C; also called Ang2VEGF-0460-0002
B6: Ang2VEGF-0466 (bispecific antibody, human IgG1, kappa)
light 1: B1 light 1 with Q37K, E124K, Q125K
heavy 1: not shown
light 2: B1 light 2 with Q38K
heavy 2: not shown
notes: CrossMAb CH1-CL, knob-into-hole with S354C/Y349C; also called Ang2VEGF-0466-0002
B7: Ang2VEGF-0475 (bispecific antibody, human IgG1, kappa)
light 1: B1 light 1 with Q125E
heavy 1: not shown
light 2: B1 light 2
heavy 2: not shown
notes: as for B3
B8: Ang2VEGF-0476 (bispecific antibody, human IgG1, kappa)
light 1: B1 light 1 with Q125E
heavy 1: not shown
light 2: B1 light 2 with K205E
heavy 2: not shown
notes: as for B3
B9: Ang2VEGF-0461 (bispecific antibody, human IgG1, kappa)
light 1: B1 light 1 with E124K, Q125R
heavy 1: not shown
light 2: B1 light 2
heavy 2: not shown
notes: CrossMAb CH1-CL, knob-into-hole with S354C/Y349C; also called Ang2VEGF-0461-0002
B10: Ang2VEGF-0463 (bispecific antibody, human IgG1, kappa)
light 1: B1 light 1 with E124K, Q125R
heavy 1: not shown
light 2: B1 light 2
heavy 2: not shown
notes: CrossMAb CH1-CL, knob-into-hole with S354C/Y349C; also called Ang2VEGF-0463-0002
B11: Ang2VEGF-0455 (bispecific antibody, human IgG1, kappa)
light 1: B1 light 1 with Q125K
heavy 1: not shown
light 2: B1 light 2
heavy 2: not shown
notes: CrossMAb CH1-CL, knob-into-hole with S354C/Y349C; also called Ang2VEGF-0455-0002
B12: Ang2VEGF-0459 (bispecific antibody, human IgG1, kappa)
light 1: B1 light 1
heavy 1: not shown
light 2: B1 light 2 with K139E
heavy 2: not shown
notes: CrossMAb CH1-CL, knob-into-hole with S354C/Y349C; also called Ang2VEGF-0459-0002
B13: Ang2VEGF-0477 (bispecific antibody, human IgG1, kappa)
light 1: B1 light 1 with Q125K
heavy 1: not shown
light 2: B1 light 2
heavy 2: not shown
notes: as for B3
B14: Ang2VEGF-0462 (bispecific antibody, human IgG1, kappa)
light 1: B1 light 1 with E124K, Q125R
heavy 1: not shown
light 2: B1 light 2
heavy 2: not shown
notes: CrossMAb CH1-CL, knob-into-hole with S354C/Y349C; also called Ang2VEGF-0462-0002
B15: Ang2VEGF-0464 (bispecific antibody, human IgG1, kappa)
light 1: B1 light 1 with Q37E, E124K, Q125K
heavy 1: not shown
light 2: B1 light 2 with Q38K
heavy 2: not shown
notes: CrossMAb CH1-CL, knob-into-hole with S354C/Y349C; also called Ang2VEGF-0464-0002

Each binder was assayed against T1, human Ang-2-RBD-Fc (assay: SPR (Biacore T200), bispecific antibody captured by anti-human F(ab')2, Ang2-RBD-Fc as analyte, 1:1 Langmuir).
Experimental: (§1) Binding of indicated antibodies to human Ang-2-RBD-Fc was investigated by surface plasmon resonance using a BIACORE® T200 instrument (GE Healthcare). Around 8000 (RU) of goat anti human F(ab′)₂ (10 μg/ml anti human F(ab)′₂; Order Code: 28958325; GE Healthcare Bio-Sciences AB, Sweden) were coupled on a Series S CMS chip (GE Healthcare BR-1005-30) at pH 5.0 by using an amine coupling kit supplied by the GE Healthcare. HBS-N (10 mM HEPES, 150 mM NaCl pH 7.4, GE Healthcare) was used as running buffer during the immobilization procedure. For the following kinetic characterization, sample and running buffer was PBS-T (10 mM phosphate buffered saline including 0.05% Tween20) at pH 7.4. The flow cell was set to 25° C.—and the sample block set to 12° C.—and primed with running buffer twice prior to kinetic characterization.
(§2) The bispecific antibody was captured by injecting a 5 nM solution for 25 sec at a flow of 5 μl/min. The association was measured by injection of human Ang2-RBD-Fc in various concentrations in solution for 120 sec at a flow of 30 μl/min starting with 100 nM in 1:3 serial dilutions. The dissociation phase was monitored for up to 180 sec and triggered by switching from the sample solution to running buffer. The surface was regenerated by 60 sec washing with a Glycine pH 2.1 solution at a flow rate of 30 μl/min. Bulk refractive index differences were corrected by subtracting the response obtained from a goat anti human F(ab′)₂ surface. Blank injections are also subtracted (=double referencing). For calculation of apparent KD the Langmuir 1:1 model was used.
(§3) Binding of the multispecific antibodies to their respective target antigens, i.e. ANG2 and VEGF, was assessed by Biacore® as described in the general methods section.

koff [s⁻¹]	kon [M⁻¹ s⁻¹]	Binder
0.0182	1.08e+07	B1
0.0252	1.16e+07	B2
0.0097	2.04e+06	B3
0.0325	1.17e+07	B4
0.0163	8.76e+06	B5
0.031	1.06e+07	B6
0.00505	1.38e+06	B7
0.0114	1.32e+06	B8
0.0163	1.07e+07	B9
0.0281	9.54e+06	B10
0.0227	1.06e+07	B11
0.0199	8.8e+06	B12
0.00823	2.19e+06	B13
0.0252	1.21e+07	B14
0.0172	8.81e+06	B15

The binders below were run against T2, human VEGFA-121 (VEGF-A-121-His) (assay: SPR (Biacore T200), VEGF-A-121-His captured by anti-His antibody, bispecific antibody as analyte, 1:1 Langmuir).
Experimental: Around 10000 (RU) of anti His antibody (1 μg/ml anti His antibody; Order Code: 28995056; GE Healthcare Bio-Sciences AB, Sweden) were coupled on a Series S CM5 chip (GE Healthcare BR-1005-30) at pH 5.0 by using an amine coupling kit supplied by the GE Healthcare. HBS-N (10 mM HEPES, 150 mM NaCl pH 7.4, GE Healthcare) was used as running buffer during the immobilization procedure. For the following kinetic characterization, sample and running buffer was PBS-T (10 mM phosphate buffered saline including 0.05% Tween20) at pH 7.4. The flow cell was set to 25° C.—and the sample block set to 12° C.—and primed with running buffer twice prior to kinetic characterization.
as §3

Kd [nM]	koff [s⁻¹]	kon [M⁻¹ s⁻¹]	Binder
4	8.65e-05	20400	B1
4	8.4e-05	21000	B2
3	5.41e-05	21300	B3
5	7.96e-05	16000	B4
6	8.18e-05	14200	B5
4	8.01e-05	18600	B6
7	7.26e-05	10500	B7
4	6.94e-05	18500	B8
4	7.67e-05	19200	B9
4	7.44e-05	17600	B10
7	9.01e-05	12600	B11
4	7.19e-05	17000	B12
3	6.1e-05	19500	B13
4	7.52e-05	21200	B14
5	7.54e-05	16600	B15

These binders were tested against T1, human Ang-2-RBD-Fc (assay: SPR (Biacore T200), bispecific antibody captured by anti-human F(ab')2, Ang2-RBD-Fc as analyte, 1:1 Langmuir, apparent KD).
Experimental: as §1, §2

Kd [nM]	Binder
2	B1
2	B2
5	B3
3	B4
2	B5
3	B6
4	B7
9	B8
2	B9
3	B10
2	B11
2	B12
4	B13
2	B14
2	B15
